These results are taken from the supplement of paper PMC9170038.

Data set [1] relates to MS2 coat protein. Briefly: apparent KD of MS2 coat protein, switch OFF state (with FMN for OFF switches, without FMN for ON switches); designed switch direction (-1 OFF switch, 1 ON switch): -1; higher = weaker reporter binding. The following applies: FMN input: 0 or 200 uM; Eterna round: R93 (includes R88 designs). In outline:
(§1)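 Titration buffer: 100 mM Tris-HCl pH 7.5, 80 mM KCl, 4 mM MgCl2, without or with constant ligand. Designed RNA switches transcribed on-chip from Illumina sequencing clusters received SNAP-549-labelled MS2 coat protein in twofold steps from 0.7 or 1.5 nM to 3 µM. Apparent KD is the median per design of fits to normalised cluster binding curves.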

In data set [2] the test system is MS2 coat protein. Briefly: apparent KD of MS2 coat protein, switch ON state; designed switch direction (-1 OFF switch, 1 ON switch): -1; higher = weaker reporter binding. The following applies: FMN input: 0 or 200 uM; Eterna round: R93 (includes R88 designs). In outline:
as §1

“AAAAACGGAGGAUAUACAAAUUAAGGAAGAAAACACGAAAAACAUGAGGAUCACCCAUGUAGAAGGCCGGAAAA [Ex 2 #3]”: the “apparent KD of MS2 coat protein” value in data set [1] was 29.7 nM; in data set [2], 24.1 nM.

For “AACUAGUCAGGAUAUACGAACAUGUCAAAAAACAUAAAGGGACAUGAGGAUCACCCAUGUAGAAGGGACUAACA [74%, Web mod - With 5 less G's]”, the figures for the “apparent KD of MS2 coat protein” value in data set [1] and in data set [2] were 500 nM and 299 nM, respectively.

Regarding “CUCAAGUAAGGAUAUAGAAGAAAAGAAGAGAAAGAAAAGAACUAGAAGGUACAUGAGGAUCACCCAUGUAAGAA [EteRNA is fun!]”, the figures for the “apparent KD of MS2 coat protein” value in data set [1] and in data set [2] were 21.5 nM and 41.6 nM, respectively.

Take “AAAAAGUCAGGAUAUACGAAAGUGCGAAAGCACAAAAAGGGACAUGAGGAUCACCCAUGUAGAAGGGACAAGAA [Married to this design, 61% 3]”: the “apparent KD of MS2 coat protein” value in data set [1] is 50.4 nM; in data set [2], 45.2 nM.

“AGCUAGAGAGGAUAUACGUGAGUGAUAAAAGUCUGAUAACUACAUGAGGAUCACCCAUGUAGAAGGCUCUAGCA [Ex2 Design 166: Sub-opt 30]”: the figures for the “apparent KD of MS2 coat protein” value in data set [1] and in data set [2] were 22.2 nM and 69.1 nM, respectively.

In the case of “AAGAAGGCAGGAUAUACAUGAGGAUCACCCAUGUAAAAGAAAGAGGGAAAAGAGAAAAGUAGAAGGGCCAAGAA [Setepenre-meryamun Alexander III]”, the results for the “apparent KD of MS2 coat protein” value in data set [1] and in data set [2] were 75 nM and 27.8 nM, respectively.

In the case of “AAGAACCUAGGAUAUACUAAAGAAAUGAAAAGAAAUAAAGAACAUGAGGAUCACCCAUGUAGAAGGAGGAAGAA [Sewadjkare III]”, the “apparent KD of MS2 coat protein” value in data set [1] came to 26.1 nM; in data set [2], 43.4 nM.

For “AAGGGACAUGAGGAUCACCCAUGUGAGGAUAUGCUAUGGAAAAUAAAAAAUAAACAUAGCAGAAGGCAUAAAAA [Mat - Exclusion 1 - Eli mod - D37]”, the “apparent KD of MS2 coat protein” value is 72.3 nM in data set [1] and 64.8 nM in data set [2].

For “AGUUGGCGAGGAUAUACAUGAGGAUCACCCAUGUGAGAGAUAAAAGUGAGAAAGAAAAGUAGAAGGCGCUAACA [JL Lego Mod 20]”, the “apparent KD of MS2 coat protein” value in data set [1] turned out to be 262 nM; in data set [2], 45.6 nM.

Regarding “AAAAAGUGAGGAUAUACAUGAGGAUCACCCAUGUGAAGGGAAGAGAGAGAGAGAGAGAGUAGAAGGCACAAAAA [Default title]”, the figures for the “apparent KD of MS2 coat protein” value in data set [1] and in data set [2] were 96.3 nM and 98.8 nM, respectively.

As to “AAGACUACAGGAUAUACAUGAGGAUCACCCAUGUAACUGACGGAUAGAUGACGGAGAAGUAGAAGGGUAGUCCA [Ruby 39]”, the “apparent KD of MS2 coat protein” value worked out at 46.9 nM in data set [1] and 36.9 nM in data set [2].

Turning to “AAAAAGUCAGGAUAUUCGGAAGGGAAAGCGCAAACCCAACCGAAGAAGGGACAUGAGGAUCACCCAUGUAAAAA [Ecls4-III]”, the “apparent KD of MS2 coat protein” value in data set [1] turned out to be 42.9 nM; in data set [2], 49.6 nM.

With “AACAGACAUGAGGAUCACCCAUGUGAGGAUAUGGCAAUCGAUAGAACUAGAAUGACAACCAGAAGGCACAGCAA [JR_Exc001_Sub004]”, the “apparent KD of MS2 coat protein” value in data set [1] is 86.3 nM; in data set [2], 77.6 nM.

In the case of “AGAAAACAUGAGGAUCACCCAUGUGAGGAUAUGCGAAUAAAGAAACAAAUAAAAGAAAGCAGAAGGCACAACAA [Ex 1 Tesla 4]”, the figures for the “apparent KD of MS2 coat protein” value in data set [1] and in data set [2] were 36 nM and 31.9 nM, respectively.

Turning to “AAAGAUGCAGGAUAUACAUGAGGAUCACCCAUGUUAGACCAAAAAUGGGAAAAAGAAAGUAGAAGGGCAUAAAA [Ex 3 May 34]”, the “apparent KD of MS2 coat protein” value in data set [1] came to 203 nM; in data set [2], 43.2 nM.

As to “GAAAAGUGAGGAUAUGCGAAGGCGUCUGAUAGACGAGGCUAGCAGAAGGCACAUGAGGAUCACCCAUGUGGGAA [Mat - Exclusion 4 - Eli mod - D91]”, the “apparent KD of MS2 coat protein” value was 133 nM in data set [1] and 71.6 nM in data set [2].

For the sequence “AAUUCACAUGAGGAUCACCCAUGUAAGGAUAUCGAAAAAAAACUAAACAAAAAACAAACGAGAAGGUACAAAAA [Exclusion 1 design 5]”, the “apparent KD of MS2 coat protein” value in data set [1] came out at 31.6 nM; in data set [2], 25.5 nM.

For the sequence “AGUUGGCGAGGAUAUACAUGAGGAUCACCCAUGUGAGAGUAAAAAGUGAGAAAGAGAAGUAGAAGGCGCUAACA [Ruby 53]”, the figures for the “apparent KD of MS2 coat protein” value in data set [1] and in data set [2] were 167 nM and 37.4 nM, respectively.

Turning to “AGAGACAGAGGAUAUACAUGAGGAUCACCCAUGUAAAAGAAAGAAAAGGGAAAGAAAAGUAGAAGGCUGAGAGA [Ruby 66]”, the entries for the “apparent KD of MS2 coat protein” value in data set [1] and in data set [2] were 25.4 nM and 23.6 nM, respectively.

As to “AAAAAGCGAGGAUAUACAUGAGGAUCACCCAUGUCAAAAGAAUAUAAAGAAAUAGGAAGUAGAAGGCGCAAAAA [Ex 3 #3]”, the “apparent KD of MS2 coat protein” value in data set [1] worked out at 56.4 nM; in data set [2] it was 67.1 nM.

As for “CUUAUGUGAGGAUAUGUACAGAAAAAAAAGGGUGUAACUGUACAGAAGGCACAUGAGGAUCACCCAUGUGAAUA [EX4 380: S S Pseudoknot 5]”, the “apparent KD of MS2 coat protein” value in data set [1] worked out at 25.1 nM; in data set [2], 61.9 nM.

For the sequence “UGGGAGUCAGGAUAUACGAACAUGUCGCCAGAUGUCAAGGUACAUGAGGAUCACCCAUGUAGAAGGGACGAGAA [salish99-Ex2-28]”, the “apparent KD of MS2 coat protein” value in data set [1] stood at 34.1 nM; in data set [2] it was 53.1 nM.

Take “CUCUUGUGAGGAUAUGUAAGAAAAGAAGAGAAAGAAAAGAAACAGAAGGCACAUGAGGAUCACCCAUGUAAGAA [EteRNA is fun!]”: the “apparent KD of MS2 coat protein” value in data set [1] came to 146 nM; in data set [2], 52.8 nM.

As to “AAGAAACAUGAGGAUCACCCAUGUGAGGAUAUACAAAAGAAAAGAAAAGAAAGAAGAAGUAGAAGGUACAAAGG [Merenre Nemtyemsaf II]”, the figures for the “apparent KD of MS2 coat protein” value in data set [1] and in data set [2] were 26.6 nM and 23.7 nM, respectively.

As for “AAAAACUGAGGAUAUACUUUGGGAAAAGAAAAGAUGAUGUUACAUGAGGAUCACCCAUGUAGAAGGCAGAAAAA [Mat - Exclusion 2 - Mod - D154]”, the “apparent KD of MS2 coat protein” value in data set [1] was determined as 43 nM; in data set [2] it was 25.4 nM.

Turning to “AGCUAGUCAGGAUAUACGAAAAUGAUAGAAGACGUAAGGGAACAUGAGGAUCACCCAUGUAGAAGGGACUAGCA [Diamond 47]”, the “apparent KD of MS2 coat protein” value in data set [1] amounted to 63.1 nM; in data set [2], 24.7 nM.

Turning to “GCUUGGCAAGGAUAUACAUGAGGAUCACCCAUGUGAGAGAAAAAAGUGAGAAAGAAAAGUAGAAGGUGUUGAGG [salish99-ex3-76]”, the “apparent KD of MS2 coat protein” value came out at 48.9 nM in data set [1] and 44.4 nM in data set [2].

As to “AAAAAGGGAGGAUAUACAGGAGGUCAAAAAAAAAAAAAAAAACAUGAGGAUCACCCAUGUAGAAGGCUUAAAAA [Ecls2-III]”, the “apparent KD of MS2 coat protein” value in data set [1] was determined as 27.3 nM; in data set [2] it was 26.7 nM.

For the sequence “AAGAAGUGAGGAUAUCGAAGACAGACGAAAAGUCUGUCAAACGAGAAGGCACAUGAGGAUCACCCAUGUGGAAG [Mat - Exaclusion 4 - Eli mod - D79]”, the entries for the “apparent KD of MS2 coat protein” value in data set [1] and in data set [2] were 36.8 nM and 30.6 nM, respectively.

Turning to “AAAAAACAUGAGGAUCACCCAUGUAAGGAUAUCGUGCAGAAAAAAAAAAAAAACUGCACGAGAAGGUACAAGGA [Brourd - Exclusion 1 - Sub 1]”, the “apparent KD of MS2 coat protein” value in data set [1] was 62.7 nM; in data set [2], 36.1 nM.

Take “AAGAACGCAGGAUAUACAUGAGGAUCACCCAUGUAAAAGAAAGAGGGAAAAGAGAAAAGUAGAAGGGCGAAGAA [Setepenre-meryamun Ptolemy I Soter]”: the “apparent KD of MS2 coat protein” value in data set [1] stood at 57.8 nM; in data set [2], 37 nM.

On to “AGCACGUCAGGAUAUACGAACACAAAGGGUAACAACAAGGGACAUGAGGAUCACCCAUGUAGAAGGGACAAGCA [Diamond 95]”, for which the “apparent KD of MS2 coat protein” value in data set [1] stood at 79.2 nM; in data set [2], 73.5 nM.

For “CCUAUGUGAGGAUAUAGCCACAUUACGAAUAAGUAGUGUGGCUAGAAGGCACAUGAGGAUCACCCAUGUAUGGG [Exclusion 4.8 (GC closing FMN)]”, the “apparent KD of MS2 coat protein” value came to 15.6 nM in data set [1] and 29.9 nM in data set [2].

Regarding “AAAAAACAUGAGGAUCACCCAUGUGAGGAUAUGACGUAAAUAAAGAAAGAAUAAAUCGUCAGAAGGCACACCAA [Mat - Exclusion 1 - Eli mod - D71]”, the “apparent KD of MS2 coat protein” value in data set [1] was 49.2 nM; in data set [2], 31.4 nM.

In the case of “AAUACACAUGAGGAUCACCCAUGUAAGGAUAUCGAAAAAAAAAUAAACAAAAAACAAACGAGAAGGUACAAAAA [Exclusion 1 design 3]”, the results for the “apparent KD of MS2 coat protein” value in data set [1] and in data set [2] were 33.6 nM and 33.2 nM, respectively.

Regarding “ACCAAUGGAGGAUAUACAUGAGGAUCACCCAUGUUUAUCCUACAUAGGUGAAAAAUAUGUAGAAGGCCAUAGGA [EX3 238: Super Stable 38]”, the “apparent KD of MS2 coat protein” value in data set [1] is 10.8 nM; in data set [2], 13.2 nM.

As for “AAGAACGGAGGAUAUACUAAAGAAAUGAAAAGAAAUAAAGAACAUGAGGAUCACCCAUGUAGAAGGCCGAAGAA [Sehebre]”, the figures for the “apparent KD of MS2 coat protein” value in data set [1] and in data set [2] were 23.7 nM and 17 nM, respectively.

Take “AUCAUGUAAGGAUAUAUAAGAAAAGAAAAGAAAGAAAAGAAAUAGAAGGUACAUGAGGAUCACCCAUGUAAGAA [EteRNA is fun!]”: the “apparent KD of MS2 coat protein” value came out at 15.6 nM in data set [1] and 30.8 nM in data set [2].

As to “UAAAAGUGAGGAUAUUCGGAUAGGAAAACGAAAACCUAUCCGAAGAAGGCACAUGAGGAUCACCCAUGUAAAAU [Mat - Exaclusion 4 - Eli mod - D37]”, the “apparent KD of MS2 coat protein” value in data set [1] came to 48 nM; in data set [2] it was 33.1 nM.

Take “AAAAUACGAGGAUAUACAUGAGGAUCACCCAUGUCAAAAAAUGACUACACAAAAGAAAGUAGAAGGCGUAAAAG [Mat - Exclusion 3 - Mayanna mod - D127]”: the “apparent KD of MS2 coat protein” value in data set [1] was 41.8 nM; in data set [2] it was 24 nM.
